B1: wild type HdeA (natural protein, E. coli, UniProt P0AES9 22-110, looked up)
chain: ADAQKAADNKKPVNSWTCEDFLAVDESFQPTAVGFAEALNNKDKPEDAVLDVQGIATVTPAIVQACTQDKQANFKDKVKGEWDKIKKDM
B2: HdeA mutant with 19F probe incorporated at site 7 (natural protein)
chain: ADAQKAWDNKKPVNSFTCEDFLAVDESFQPTAVGFAEALNNKDKPEDAVLDVQGIATVTPAIVQACTQDKQANFKDKVKGEFDKIKKDM
modifications: 5-fluorotryptophan at 7
B3: HdeA mutant with 19F probe incorporated at site 49 (natural protein)
chain: ADAQKAADNKKPVNSFTCEDFLAVDESFQPTAVGFAEALNNKDKPEDAWLDVQGIATVTPAIVQACTQDKQANFKDKVKGEFDKIKKDM
modifications: 5-fluorotryptophan at 49
B4: HdeA mutant with 19F probe incorporated at site 63 (natural protein)
chain: ADAQKAADNKKPVNSFTCEDFLAVDESFQPTAVGFAEALNNKDKPEDAVLDVQGIATVTPAIWQACTQDKQANFKDKVKGEFDKIKKDM
modifications: 5-fluorotryptophan at 63
B5: HdeA mutant with 19F probe incorporated at site 78 (natural protein)
chain: ADAQKAADNKKPVNSFTCEDFLAVDESFQPTAVGFAEALNNKDKPEDAVLDVQGIATVTPAIVQACTQDKQANFKDKWKGEFDKIKKDM
modifications: 5-fluorotryptophan at 78
B6: HdeA mutant with 19F probe incorporated at site 24 (natural protein)
chain: ADAQKAADNKKPVNSFTCEDFLAWDESFQPTAVGFAEALNNKDKPEDAVLDVQGIATVTPAIVQACTQDKQANFKDKVKGEFDKIKKDM
modifications: 5-fluorotryptophan at 24
B7: HdeA mutant with 19F probe incorporated at site 55 (natural protein)
chain: ADAQKAADNKKPVNSFTCEDFLAVDESFQPTAVGFAEALNNKDKPEDAVLDVQGWATVTPAIVQACTQDKQANFKDKVKGEFDKIKKDM
modifications: 5-fluorotryptophan at 55
B8: HdeA mutant with 19F probe incorporated at site 28 (natural protein)
chain: ADAQKAADNKKPVNSFTCEDFLAVDESWQPTAVGFAEALNNKDKPEDAVLDVQGIATVTPAIVQACTQDKQANFKDKVKGEFDKIKKDM
modifications: 5-fluorotryptophan at 28
B9: HdeA mutant with 19F probe incorporated at site 35 (natural protein)
chain: ADAQKAADNKKPVNSFTCEDFLAVDESFQPTAVGWAEALNNKDKPEDAVLDVQGIATVTPAIVQACTQDKQANFKDKVKGEFDKIKKDM
modifications: 5-fluorotryptophan at 35
B10: HdeA-82-fluoro (natural protein)
chain: ADAQKAADNKKPVNSFTCEDFLAVDESFQPTAVGFAEALNNKDKPEDAVLDVQGIATVTPAIVQACTQDKQANFKDKVKGEWDKIKKDM
modifications: 5-fluorotryptophan at 82
B11: HdeA-F28W mutant (natural protein)
chain: ADAQKAADNKKPVNSWTCEDFLAVDESWQPTAVGFAEALNNKDKPEDAVLDVQGIATVTPAIVQACTQDKQANFKDKVKGEWDKIKKDM
B12: HdeA-16-fluoro (natural protein)
chain: ADAQKAADNKKPVNSWTCEDFLAVDESFQPTAVGFAEALNNKDKPEDAVLDVQGIATVTPAIVQACTQDKQANFKDKVKGEFDKIKKDM
modifications: 5-fluorotryptophan at 16

One data set deals with the molecule itself. The data set is described as follows: NMR.
Regarding B1, the binding result was “binds”.

A further data set concerns the target T1, MalE (E. coli, UniProt P0AEX9 27-396 = MBP). The experiment in a line: 19F NMR.
Regarding B2, the binding result is reported as “binds”.

For B3, the binding result is listed as “binds”.

Take B4: the binding result is given as “binds”.

In the case of B5, the binding result was “binds”.

Take B6: the binding result is on record as “binds”.

For the molecule B7, the binding result is recorded as “binds”.

Take B8: the binding result was “binds”.

As to B9, the binding result is reported as “binds”.

For another data set, the target named is T1, MalE. The data set is described as follows: ITC.
The stoichiometry N is a count of units in the complex or per binding partner. In the case of B1, the “stoichiometry N” value was around 0.5.

The target of another data set is T1, MalE. The experiment in a line: NMR.
With B10, the binding result is “binds”.

As to B11, the binding result is recorded as “binds”.

On to B12, for which the binding result is “binds”.
